Read-outs that look alike come from different tables or passages of the source.
Columns and labels:
[1] = molecular target: MERS SS antigen (MERS-CoV EMC/2012) (UniProt K9N5Q8)
[2] = molecular target: MERS SS antigen (MERS-CoV EMC/2012) (UniProt K9N5Q8); remark: listed apart in the source
[3] = molecular target: SS-L2-Aferr; assay: BLI, 1:1 fit
[4] = molecular target: MERS SS antigen (MERS-CoV EMC/2012) (UniProt K9N5Q8); assay: BLI, 1:1 fit
[5] = molecular target: MERS [change]\u0394RBD antigen (MERS-CoV EMC/2012); assay: BLI, 1:1 fit
[6] = molecular target: SS[change]; assay: BLI, 1:1 fit

Substance | Kd [1] | maximum binding [2] | Kd [3] | kon [3] | Kd [4] | kon [4] | Kd [5] | kon [5] | Kd [6] | kon [6]
G4 (antibody) | 550 pM | 0.43 nm | 2.38 pM | 205000 M⁻¹ s⁻¹ | 8.1 pM | 52200 M⁻¹ s⁻¹ | 6.71 pM | 67400 M⁻¹ s⁻¹ | 2.79 pM | 175000 M⁻¹ s⁻¹
CC40.8 (antibody) | – | – | 312 pM | 229000 M⁻¹ s⁻¹ | – | – | – | – | 1690 pM | 205000 M⁻¹ s⁻¹

Reference: patent publication US20260069679A1
